One substance from EP1127148B1 can be followed below.

This assay concerns the target TAG-72 positive bovine submaxillary mucin (BSM) (bovine). Nature of the assay: relative affinity constant from competition RIA on BSM.

For the substance “humanized monoclonal antibody CC49 (HuCC49)”, the Ka was found to be 3.2e+08 M⁻¹.
